Measurements taken from the supplement of paper PMC9170038.

Tested on: MS2 coat protein
Test: apparent KD of MS2 coat protein; designed switch direction (-1 OFF switch, 1 ON switch): -1; higher = weaker reporter binding
Procedure, shortened: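 Transcription of designed RNA switches on Illumina chips was done by stalled E. coli RNA polymerase. SNAP-549-labelled MS2 coat protein was then titrated in doubling steps from 0.7 or 1.5 nM to 3 µM, with steps of 0.8–1.5 h at the lowest and 10–20 min at the highest concentration. The per-design median over clusters of curve-fitted normalised fluorescence is reported as apparent KD.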

[1] = Eterna round: R95, input ligand: microRNA oligo, concentration not stated
[2] = input ligand: microRNA oligo, concentration not stated
[3] = Eterna round: R95, input ligand: FMN 200 uM
[4] = Eterna round: R95, input ligand: none

Sequence	apparent KD of MS2 coat protein (input ligand: FMN 200 uM)	apparent KD of MS2 coat protein (input ligand: none)	apparent KD of MS2 coat protein [1]	apparent KD of MS2 coat protein [2]	apparent KD of MS2 coat protein [3]	apparent KD of MS2 coat protein [4]
GGUGAGCUAGGAUAUGCUUUGGGCUCGCUUUCCUUCGAUAAACUUGAGGAUCACCCAAGUAGAAGGAGCUUGCC [salish99_ex2_r4_033] (Eterna round: R97, puzzle: Exclusion 2)	14.8 nM	12 nM				
GGUGAGCUAGGAUAUGCUUUGGGCUCGCUUUCCUUCGUUUUACUUGAGGAUCACCCAAGUAGAAGGAGCUUGCC [salish99_ex2_r4_036] (Eterna round: R97, puzzle: Exclusion 2)	13.9 nM	12.2 nM				
GGUGCGUAUGUGAGGAUAUGCUGGUCCUUGGCUCGGCAGAAGGCACAUGAGGAUCACCCAUGUGGUGUCGUACU [salish99_Bmod_ex4_068] (puzzle: Brourd's mod of Exclusion 4)			96.8 nM			
GGUGGUAUGUCAGGAUAUACAGCCUAAAUGGAAGUAGAAGGGACACAUGAGGGUCACCCAUGUGACAUGAGGAUCACCCAUGUA [Hi3 10-05-2015] (Eterna round: R96, puzzle: Exclusion NG 1)	64 nM	60.7 nM		41.1 nM		
GGUUAUUGCAAGGAUAUGCUAUUAUUUUAUUUUGCAGAAGGUGCAACAUGAGGAUCACCCAUGUUGGAGGGUUU [JR_E6_Sub024] (puzzle: Exclusion 6)			17.9 nM			
GGUUGACAUGAGGAUCACCCAUGUGAGGAUAUGCGAGAGAAAAAAGUGAGGAAGAAAAGCAGAAGGCGCUGACG [salish99-ex1_r3_002] (puzzle: Exclusion 1)			28.6 nM		15.5 nM	13.5 nM
GGUUGACAUGAGGAUCACCCAUGUGAGGAUAUGCGAGAGAAAAAAGUGAGGAAGAAAAGCAGAAGGCGCUGUCG [salish99-ex1_r3_003] (puzzle: Exclusion 1)			22.4 nM		29.8 nM	45.5 nM
GGUUGACAUGAGGAUCACCCAUGUGAGGAUAUGCGAGAGAAAAAAGUGAGGAAGAUAAGCAGAAGGCGCUGUCG [salish99-ex1_r3_013] (puzzle: Exclusion 1)			178 nM		118 nM	260 nM
GGUUGCGCAGGAUAUACAUGAGGAUCACCCAUGUGAGAGAAAUAAGUGAGGAAGAAAAGUAGAAGGGCGUGACG [Mat - Exclusion 3 - Mod of Salish D72] (puzzle: Exclusion 3)			37.7 nM		170 nM	68.9 nM
GGUUGGCGAGGAUAUACAUGAGGAUCACCCAUGUGAGAGAAAACAGUGAGGAAGAAAAGUAGAAGGCGCUGACG [salish99_ex3_r3_024] (puzzle: Exclusion 3)			52.6 nM		466 nM	48 nM
GGUUGGCGAGGAUAUACAUGAGGAUCACCCAUGUGAGAGAUACUAGUGAGGUCGAUUAGUAGAAGGCGCUGACG [JL-ex3-2.01 salish99 mod] (puzzle: Exclusion 3)			31.1 nM		174 nM	32.2 nM
GUAAAAUAAGCUUAUUUACACAUGAGGAUCACCCAUGUAUUGGACGGACUCCUGACCUCAAUUAUAUGCUCGUAUCG [Eternabot (L1) Solution 41] (Eterna round: R97, puzzle: Sensor, turn-off variant 1)	77.6 nM	79.5 nM				
GUAAAGGUAGGAUAUACGAAGAAAAAGGGUAGAAGAAGAACACAUGAGGAUCACCCAUGUAGAAGGACCAAAUG [Mat - Exclusion 2 - Mod of my Tesla design - D4] (puzzle: Exclusion 2)			24.8 nM		63.9 nM	28.5 nM
GUAAUAGUGGUUAGGAUAUGCGAUCGAAAAUAGGUGCAGAAGGAACAUGAGGAUCACCCAUGUGCCUCCUCAAU [Eternabot (L1) Solution 6] (Eterna round: R97, puzzle: Brourd's mod of Exclusion 4)	24.2 nM	15.6 nM				
GUAAUUAAUGUAGGAUAUGCAAGGCGAACCUAAGCAGAAGGACAUGAGGAUCACCCAUGUAUUGCGGUCUGCGUUCUGAUCGCU [salish99_ExNG1_r4_010] (Eterna round: R96, puzzle: Exclusion NG 1)	19.1 nM	17 nM		8.25 nM		
GUACUCGGAUGACAGUCCGACAUGAGGAUCACCCAUGUUUCAUUAAGGUCGUUGCUCGUCAAACAUCACUCAACCAG [Eternabot (L1) Solution 35] (Eterna round: R97, puzzle: Sensor, turn-off variant 1)	43.2 nM	51.5 nM				
GUACUGAAGCAUAGCUUUAGUCGUACAUGAGGAUCACCCAUGUAGGAUAUGGUAGGCAUAGCUUACUAGAAGGAUAGAGUGAUC [Mat - Exclusion NG 3 - Mod of JL - D72] (Eterna round: R96, puzzle: Exclusion NG 3)	440 nM	137 nM		71.6 nM		

Sequence	apparent KD of MS2 coat protein (input ligand: FMN 200 uM)	apparent KD of MS2 coat protein (input ligand: none)	apparent KD of MS2 coat protein [1]	apparent KD of MS2 coat protein [2]	apparent KD of MS2 coat protein [3]	apparent KD of MS2 coat protein [4]
GUACUGAAGCUUUGCUUUAAUCGUACAUGAGGAUCACCCAUGUAGGAUAUGGUAGGCUUUGCUUACCAGAAGGACAGAGUGAUC [JL EXNG3 1.24] (Eterna round: R96, puzzle: Exclusion NG 3)	217 nM	136 nM		124 nM		
GUACUGACAGGAUAUACAUGAGGAUCACCCAUGUGCCCUUAUAGAUGCAAAGCAUCUAGUAGAAGGGUCUGUAC [Omei Ex3 Model Bachelor's Dilema v24] (Eterna round: R97, puzzle: Exclusion 3)	32.8 nM	26.9 nM				
GUAGAGACAGGAUAUACAUGAGGAUCACCCAUGUGAGGAGGAAAAGAGAGGAGAAAGAGUAGAAGGGUCGAAAG [JR_Exclu3_Sub030] (puzzle: Exclusion 3)			35.7 nM		41.4 nM	43 nM
GUAGAGUCAGGAUAUACAAGAUCGAAAGAUCAAAGGUCCAUACAUGAGGAUCACCCAUGUAGAAGGGACUCUAC [Eli x2 4.09] (Eterna round: R97, puzzle: Exclusion 2)	36.4 nM	24.5 nM				
GUAGAGUCAGGAUAUACGAGAUCGAAAGAUCGGCGAUCCAAACAUGAGGAUCACCCAUGUAGAAGGGACUCUAC [Eli x2 4.004] (Eterna round: R97, puzzle: Exclusion 2)	579 nM	41 nM				
GUAGAGUCAGGAUAUACGAGAUCGAAAGAUCGGCGGUCUGUACAUGAGGAUCACCCAUGUAGAAGGGACUCUAC [ChP 11-04-2015 #6] (puzzle: Exclusion 2)			15.3 nM			
GUAGAGUCAGGAUAUACGCGAUCGAAAGAUCGGUGGUCCUUACAUGAGGAUCACCCAUGUAGAAGGGACUCUAC [Omei mod 13 to Eli's favorate candidate (ch.parushev)] (Eterna round: R97, puzzle: Exclusion 2)	65.9 nM	580 nM				
GUAGAGUGAGGAUAUACAAGAUCGAUAGAUCGGCGAUCCAUACAUGAGGAUCACCCAUGUAGAAGGCACUCUAC [Mat - Exclusion 2 - Eli Mod - D7] (Eterna round: R97, puzzle: Exclusion 2)	218 nM	83.5 nM				
GUAGAGUGAGGAUAUACGAGAUCGAAAGAUCAACGAUCCAAACAUGAGGAUCACCCAUGUAGAAGGCACUCUAC [Eli x2 4.008] (Eterna round: R97, puzzle: Exclusion 2)	270 nM	27.1 nM				
GUAUACGAUGAGGAUAUAUGAUAUCAAAGCAUCAUAGAAGGCAUCACAUGAGGAUCACCCAUGUGAUCUUCUUG [Mat - Exclusion 6 - JL Mod - D33] (Eterna round: R97, puzzle: Exclusion 6)	141 nM	31.3 nM				
GUAUCGUGAGGAUAUCAUGAUUGACUUAAUUUAUGUCAGCGUGAGAAGGCACAUGAGGAUCACCCAUGUGAUUA [Ex4 - 3 - 6] (puzzle: Exclusion 4)			20.5 nM			
GUCACAUGGACAUAGGAUCACAUGAGGAUCACCCAUGUGACUAACAAGCUUUUUGCUCGUCUUAUGUCUAUGUGAAA [Stov1/16-A1] (Eterna round: R97, puzzle: Sensor, turn-off variant 1)	12.8 nM	12 nM				
GUCAGACGAGGAUAUGAUCAAUAAUACAUGAGGAUCACCCAUGUAAUACUGAUCCAUGGAUCAGAAGGCGUCUGAC [E5/5-A4] (Eterna round: R97, puzzle: Exclusion 5)	23.4 nM	15.4 nM				
GUCAGCUCGUCAGGAUAUACAUCACUGCUUCGGCAGUGUAUUAAGAUCACAUGAGGAUCACCCAUGUAGAAGGGACGAGCUGAU [ENG2/2-B2] (Eterna round: R96, puzzle: Exclusion NG 2)	322 nM	25.8 nM		18.4 nM		
GUCAGCUCGUCAGGAUAUACAUGAGGAUCACCCAUGUGGUCAAUAGCAGCUUCGGCUGCAAUAAUGUAGAAGGGACGAGCUGAC [ENG2/8-E] (Eterna round: R96, puzzle: Exclusion NG 2)	115 nM	756 nM		301 nM		
GUCAGCUCGUGAGGAUAUACAUGAGGAUCACCCAUGUGGUCAUUAGCAGCUUCGGCUGCAUUAAUGUAGAAGGCACGAGCUGAC [ENG2/8-A1] (Eterna round: R96, puzzle: Exclusion NG 2)	635 nM	1140 nM		690 nM		
